# Source: patent US12679878B2, “CRF2 receptor agonists and their use in therapy” (SANOFI, priority 2020, dated 2026)
# Starred links: 1 amine or outer side, 2 acyl side, 3 side chain; linkers in the order of their positions; H or OH if unused. Non-standard residues stand in square brackets, D forms with d. Groups on a side chain read outwards from the residue. No end group written: not given here. *: point of attachment. C16 diacid = O=C(O)CCCCCCCCCCCCCCC(=O)*; γGlu = O=C(O)[C@H](CCC(=O)[*:2])N[*:1]; Aib = CC(C)(N)C(=O)O
# T1: CRF1R receptor (anti-target) (UniProt P34998 24-415, limits assumed)
# T1 sequence (looked up): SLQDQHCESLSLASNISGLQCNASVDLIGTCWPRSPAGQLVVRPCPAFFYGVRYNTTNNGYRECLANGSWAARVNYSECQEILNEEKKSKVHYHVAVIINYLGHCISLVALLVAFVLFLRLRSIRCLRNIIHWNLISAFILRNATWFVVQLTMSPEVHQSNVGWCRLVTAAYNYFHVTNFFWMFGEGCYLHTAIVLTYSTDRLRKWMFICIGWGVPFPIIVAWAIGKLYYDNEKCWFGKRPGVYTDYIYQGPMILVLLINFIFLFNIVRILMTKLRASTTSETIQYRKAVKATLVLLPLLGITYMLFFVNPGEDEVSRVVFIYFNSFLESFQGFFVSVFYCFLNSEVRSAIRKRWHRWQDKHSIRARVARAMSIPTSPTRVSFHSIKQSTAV
# B1: peptide of SEQ ID NO: 196 (peptide)
# peptide: IVLSLD[dV]PIGLK([γGlu-C16 diacid])QILLKQERQKK[Aib]REQAEKNKRILERV-NH2
# modifications: N-terminus assumed
# SMILES: CC[C@H](C)[C@H](N)C(=O)N[C@H](C(=O)N[C@@H](CC(C)C)C(=O)N[C@@H](CO)C(=O)N[C@@H](CC(C)C)C(=O)N[C@@H](CC(=O)O)C(=O)N[C@@H](C(=O)N1CCC[C@H]1C(=O)N[C@H](C(=O)NCC(=O)N[C@@H](CC(C)C)C(=O)N[C@@H](CCCCNC(=O)CC[C@H](NC(=O)CCCCCCCCCCCCCCC(=O)O)C(=O)O)C(=O)N[C@@H](CCC(N)=O)C(=O)N[C@H](C(=O)N[C@@H](CC(C)C)C(=O)N[C@@H](CC(C)C)C(=O)N[C@@H](CCCCN)C(=O)N[C@@H](CCC(N)=O)C(=O)N[C@@H](CCC(=O)O)C(=O)N[C@@H](CCCNC(=N)N)C(=O)N[C@@H](CCC(N)=O)C(=O)N[C@@H](CCCCN)C(=O)N[C@@H](CCCCN)C(=O)NC(C)(C)C(=O)N[C@@H](CCCNC(=N)N)C(=O)N[C@@H](CCC(=O)O)C(=O)N[C@@H](CCC(N)=O)C(=O)N[C@@H](C)C(=O)N[C@@H](CCC(=O)O)C(=O)N[C@@H](CCCCN)C(=O)N[C@@H](CC(N)=O)C(=O)N[C@@H](CCCCN)C(=O)N[C@@H](CCCNC(=N)N)C(=O)N[C@H](C(=O)N[C@@H](CC(C)C)C(=O)N[C@@H](CCC(=O)O)C(=O)N[C@@H](CCCNC(=N)N)C(=O)N[C@H](C(N)=O)C(C)C)[C@@H](C)CC)[C@@H](C)CC)[C@@H](C)CC)C(C)C)C(C)C
# B2: peptide of SEQ ID NO: 189 (peptide)
# peptide: IVLSLD[dV]PIKLK([γGlu-C16 diacid])QILLKQERQKK[Aib]RQKAEKNKQILAQV-NH2
# modifications: N-terminus assumed
# SMILES: CC[C@H](C)[C@H](N)C(=O)N[C@H](C(=O)N[C@@H](CC(C)C)C(=O)N[C@@H](CO)C(=O)N[C@@H](CC(C)C)C(=O)N[C@@H](CC(=O)O)C(=O)N[C@@H](C(=O)N1CCC[C@H]1C(=O)N[C@H](C(=O)N[C@@H](CCCCN)C(=O)N[C@@H](CC(C)C)C(=O)N[C@@H](CCCCNC(=O)CC[C@H](NC(=O)CCCCCCCCCCCCCCC(=O)O)C(=O)O)C(=O)N[C@@H](CCC(N)=O)C(=O)N[C@H](C(=O)N[C@@H](CC(C)C)C(=O)N[C@@H](CC(C)C)C(=O)N[C@@H](CCCCN)C(=O)N[C@@H](CCC(N)=O)C(=O)N[C@@H](CCC(=O)O)C(=O)N[C@@H](CCCNC(=N)N)C(=O)N[C@@H](CCC(N)=O)C(=O)N[C@@H](CCCCN)C(=O)N[C@@H](CCCCN)C(=O)NC(C)(C)C(=O)N[C@@H](CCCNC(=N)N)C(=O)N[C@@H](CCC(N)=O)C(=O)N[C@@H](CCCCN)C(=O)N[C@@H](C)C(=O)N[C@@H](CCC(=O)O)C(=O)N[C@@H](CCCCN)C(=O)N[C@@H](CC(N)=O)C(=O)N[C@@H](CCCCN)C(=O)N[C@@H](CCC(N)=O)C(=O)N[C@H](C(=O)N[C@@H](CC(C)C)C(=O)N[C@@H](C)C(=O)N[C@@H](CCC(N)=O)C(=O)N[C@H](C(N)=O)C(C)C)[C@@H](C)CC)[C@@H](C)CC)[C@@H](C)CC)C(C)C)C(C)C
# B3: peptide of SEQ ID NO: 195 (peptide)
# peptide: IVLSLD[dV]PIGLK([γGlu-C16 diacid])QILLKQERQKK[Aib]RQQAETNKRILERV-NH2
# modifications: N-terminus assumed
# SMILES: CC[C@H](C)[C@H](N)C(=O)N[C@H](C(=O)N[C@@H](CC(C)C)C(=O)N[C@@H](CO)C(=O)N[C@@H](CC(C)C)C(=O)N[C@@H](CC(=O)O)C(=O)N[C@@H](C(=O)N1CCC[C@H]1C(=O)N[C@H](C(=O)NCC(=O)N[C@@H](CC(C)C)C(=O)N[C@@H](CCCCNC(=O)CC[C@H](NC(=O)CCCCCCCCCCCCCCC(=O)O)C(=O)O)C(=O)N[C@@H](CCC(N)=O)C(=O)N[C@H](C(=O)N[C@@H](CC(C)C)C(=O)N[C@@H](CC(C)C)C(=O)N[C@@H](CCCCN)C(=O)N[C@@H](CCC(N)=O)C(=O)N[C@@H](CCC(=O)O)C(=O)N[C@@H](CCCNC(=N)N)C(=O)N[C@@H](CCC(N)=O)C(=O)N[C@@H](CCCCN)C(=O)N[C@@H](CCCCN)C(=O)NC(C)(C)C(=O)N[C@@H](CCCNC(=N)N)C(=O)N[C@@H](CCC(N)=O)C(=O)N[C@@H](CCC(N)=O)C(=O)N[C@@H](C)C(=O)N[C@@H](CCC(=O)O)C(=O)N[C@H](C(=O)N[C@@H](CC(N)=O)C(=O)N[C@@H](CCCCN)C(=O)N[C@@H](CCCNC(=N)N)C(=O)N[C@H](C(=O)N[C@@H](CC(C)C)C(=O)N[C@@H](CCC(=O)O)C(=O)N[C@@H](CCCNC(=N)N)C(=O)N[C@H](C(N)=O)C(C)C)[C@@H](C)CC)[C@@H](C)O)[C@@H](C)CC)[C@@H](C)CC)C(C)C)C(C)C
# B4: peptide of SEQ ID NO: 190 (peptide)
# peptide: IVLSLD[dV]PIKLK([γGlu-C16 diacid])QILLKQERQKKQREQAEKNKQILEQV-NH2
# modifications: N-terminus assumed
# SMILES: CC[C@H](C)[C@H](N)C(=O)N[C@H](C(=O)N[C@@H](CC(C)C)C(=O)N[C@@H](CO)C(=O)N[C@@H](CC(C)C)C(=O)N[C@@H](CC(=O)O)C(=O)N[C@@H](C(=O)N1CCC[C@H]1C(=O)N[C@H](C(=O)N[C@@H](CCCCN)C(=O)N[C@@H](CC(C)C)C(=O)N[C@@H](CCCCNC(=O)CC[C@H](NC(=O)CCCCCCCCCCCCCCC(=O)O)C(=O)O)C(=O)N[C@@H](CCC(N)=O)C(=O)N[C@H](C(=O)N[C@@H](CC(C)C)C(=O)N[C@@H](CC(C)C)C(=O)N[C@@H](CCCCN)C(=O)N[C@@H](CCC(N)=O)C(=O)N[C@@H](CCC(=O)O)C(=O)N[C@@H](CCCNC(=N)N)C(=O)N[C@@H](CCC(N)=O)C(=O)N[C@@H](CCCCN)C(=O)N[C@@H](CCCCN)C(=O)N[C@@H](CCC(N)=O)C(=O)N[C@@H](CCCNC(=N)N)C(=O)N[C@@H](CCC(=O)O)C(=O)N[C@@H](CCC(N)=O)C(=O)N[C@@H](C)C(=O)N[C@@H](CCC(=O)O)C(=O)N[C@@H](CCCCN)C(=O)N[C@@H](CC(N)=O)C(=O)N[C@@H](CCCCN)C(=O)N[C@@H](CCC(N)=O)C(=O)N[C@H](C(=O)N[C@@H](CC(C)C)C(=O)N[C@@H](CCC(=O)O)C(=O)N[C@@H](CCC(N)=O)C(=O)N[C@H](C(N)=O)C(C)C)[C@@H](C)CC)[C@@H](C)CC)[C@@H](C)CC)C(C)C)C(C)C
# B5: peptide of SEQ ID NO: 193 (peptide)
# peptide: IVLSLD[dV]PIGLK([γGlu-C16 diacid])QILLKQERQKK[Aib]REQAETNKRILERV-NH2
# modifications: N-terminus assumed
# SMILES: CC[C@H](C)[C@H](N)C(=O)N[C@H](C(=O)N[C@@H](CC(C)C)C(=O)N[C@@H](CO)C(=O)N[C@@H](CC(C)C)C(=O)N[C@@H](CC(=O)O)C(=O)N[C@@H](C(=O)N1CCC[C@H]1C(=O)N[C@H](C(=O)NCC(=O)N[C@@H](CC(C)C)C(=O)N[C@@H](CCCCNC(=O)CC[C@H](NC(=O)CCCCCCCCCCCCCCC(=O)O)C(=O)O)C(=O)N[C@@H](CCC(N)=O)C(=O)N[C@H](C(=O)N[C@@H](CC(C)C)C(=O)N[C@@H](CC(C)C)C(=O)N[C@@H](CCCCN)C(=O)N[C@@H](CCC(N)=O)C(=O)N[C@@H](CCC(=O)O)C(=O)N[C@@H](CCCNC(=N)N)C(=O)N[C@@H](CCC(N)=O)C(=O)N[C@@H](CCCCN)C(=O)N[C@@H](CCCCN)C(=O)NC(C)(C)C(=O)N[C@@H](CCCNC(=N)N)C(=O)N[C@@H](CCC(=O)O)C(=O)N[C@@H](CCC(N)=O)C(=O)N[C@@H](C)C(=O)N[C@@H](CCC(=O)O)C(=O)N[C@H](C(=O)N[C@@H](CC(N)=O)C(=O)N[C@@H](CCCCN)C(=O)N[C@@H](CCCNC(=N)N)C(=O)N[C@H](C(=O)N[C@@H](CC(C)C)C(=O)N[C@@H](CCC(=O)O)C(=O)N[C@@H](CCCNC(=N)N)C(=O)N[C@H](C(N)=O)C(C)C)[C@@H](C)CC)[C@@H](C)O)[C@@H](C)CC)[C@@H](C)CC)C(C)C)C(C)C
# B6: peptide of SEQ ID NO: 187 (peptide)
# peptide: IVLSLD[dV]PIKLK([γGlu-C16 diacid])QILLKQERQK[Aib]QREQAEKNKQILAQV-NH2
# modifications: N-terminus assumed
# SMILES: CC[C@H](C)[C@H](N)C(=O)N[C@H](C(=O)N[C@@H](CC(C)C)C(=O)N[C@@H](CO)C(=O)N[C@@H](CC(C)C)C(=O)N[C@@H](CC(=O)O)C(=O)N[C@@H](C(=O)N1CCC[C@H]1C(=O)N[C@H](C(=O)N[C@@H](CCCCN)C(=O)N[C@@H](CC(C)C)C(=O)N[C@@H](CCCCNC(=O)CC[C@H](NC(=O)CCCCCCCCCCCCCCC(=O)O)C(=O)O)C(=O)N[C@@H](CCC(N)=O)C(=O)N[C@H](C(=O)N[C@@H](CC(C)C)C(=O)N[C@@H](CC(C)C)C(=O)N[C@@H](CCCCN)C(=O)N[C@@H](CCC(N)=O)C(=O)N[C@@H](CCC(=O)O)C(=O)N[C@@H](CCCNC(=N)N)C(=O)N[C@@H](CCC(N)=O)C(=O)N[C@@H](CCCCN)C(=O)NC(C)(C)C(=O)N[C@@H](CCC(N)=O)C(=O)N[C@@H](CCCNC(=N)N)C(=O)N[C@@H](CCC(=O)O)C(=O)N[C@@H](CCC(N)=O)C(=O)N[C@@H](C)C(=O)N[C@@H](CCC(=O)O)C(=O)N[C@@H](CCCCN)C(=O)N[C@@H](CC(N)=O)C(=O)N[C@@H](CCCCN)C(=O)N[C@@H](CCC(N)=O)C(=O)N[C@H](C(=O)N[C@@H](CC(C)C)C(=O)N[C@@H](C)C(=O)N[C@@H](CCC(N)=O)C(=O)N[C@H](C(N)=O)C(C)C)[C@@H](C)CC)[C@@H](C)CC)[C@@H](C)CC)C(C)C)C(C)C
# Target: T1, CRF1R receptor (anti-target)
# Assay: cell-based or functional assay
"EC50 [nM] 0% HSA (cAMP, HTRF) [nM]",Emax (%) (100% = Sauvagine at 100 nM),Binder
> 100,16.9,B1
> 100,15,B2
> 100,17.1,B3
> 100,12,B4
> 100,8.77,B5
> 100,43.8,B6
